Source: patent US10968255

Assays:
[1] = target: BG505 SOSIP.664 gp140 trimer (HIV-1); assay: negative stain EM
[2] = target: CH505 TF chimeric SOSIP.III trimer (CH505TFchim.6R.SOSIP.664v4.1) (HIV-1 (CH505 gp120 with BG505 gp41, chimera)); assay: negative stain EM
[3] = target: CH505 transmitted/founder (TF) gp120 Env (HIV-1); assay: SPR, antibody captured, gp120 injected
[4] = target: CH505 transmitted/founder (TF) gp120 Env (HIV-1); assay: competition ELISA, blocking of CH106 binding to CH505 TF gp120
[5] = target: CH505 transmitted/founder (TF) gp120 Env (HIV-1); assay: competition ELISA, blocking of sCD4 binding to CH505 TF gp120
[6] = target: CH505 TF loop D mutant M8 Env (pseudovirus) (HIV-1); assay: cell-based or functional assay
[7] = target: CH505 TF loop D mutant M7 Env (pseudovirus) (HIV-1); assay: cell-based or functional assay
[8] = target: CH505 TF loop D mutant M9 Env (pseudovirus) (HIV-1); assay: cell-based or functional assay
[9] = target: CH505 TF loop D mutant M20 Env (pseudovirus) (HIV-1); assay: cell-based or functional assay
[10] = target: B41 SOSIP.664 gp140 trimer (HIV-1); assay: negative stain EM
[11] = target: CH505 transmitted/founder (TF) gp120 Env (HIV-1); assay: competition ELISA, competitor biotinylated CH240
[12] = target: CH505 transmitted/founder (TF) gp120 Env (HIV-1); assay: competition ELISA, competitor biotinylated CH241

## CH103 Fab
[1]
  stoichiometry (Fabs per trimer) (Fabs per trimer): 3
[2]
  binding ratio (CH103 to gp140) (CH103 per gp140): 1
  stoichiometry (Fabs per trimer) (Fabs per trimer): 3

## CH103 lineage unmutated common ancestor (UCA) (antibody)
[3]
  Kd: 227 nM
  kon: 37000 M⁻¹ s⁻¹

## CH241 (antibody)
[4]
  IC50: 2.6 µg/mL
[5]
  IC50: 1.5 µg/mL
[3]
  Kd: 0.7 nM
  koff: 0.00033 s⁻¹

## CH235.9 (antibody)
[6]
  neutralization IC50, TZM-bl pseudovirus assay: 0.66 µg/mL

## CH235.9 N30T (antibody)
[7]
  neutralization IC50, TZM-bl pseudovirus assay: > 44 µg/mL
[6]
  fold increase of the neutralization IC50 against CH235.9: 37 fold
  neutralization IC50, TZM-bl pseudovirus assay: 24.3 µg/mL
[8]
  neutralization IC50, TZM-bl pseudovirus assay: > 44 µg/mL
[9]
  neutralization IC50, TZM-bl pseudovirus assay: > 44 µg/mL

## CH235.12 Fab
[10]
  stoichiometry (Fabs per trimer) (Fabs per trimer): 3
[1]
  stoichiometry (Fabs per trimer) (Fabs per trimer): 3

## CH235.9 Fab
[10]
  stoichiometry (Fabs per trimer) (Fabs per trimer): 3
[1]
  stoichiometry (Fabs per trimer) (Fabs per trimer): 3

## CH106 (antibody)
[11]
  IC50: 2.3 µg/mL
[12]
  IC50: 14.3 µg/mL

## CH235 Fab
[10]
  stoichiometry (Fabs per trimer) (Fabs per trimer): 2
[1]
  stoichiometry (Fabs per trimer) (Fabs per trimer): 1
